Consider two molecules from patent CN101007849A.

Test [1] concerns the target 人TPO受体(MPL)，表达于Ba/F3细胞 (human) (UniProt P40238). The test is described as follows: cell-based or functional assay.
For test [2] the target is unchanged. The test is described as follows: cell-based or functional assay. The source holds these as a separate data set.

In the case of “人TPO(R&D Systems) (from UniProt P40225 22-353) (ligand)”, the ED50，BaF/mpl细胞增殖(WST-8) in test [1] worked out at 0.027 nM.

B1: 抗体12B5(IgG) (antibody, from another filing)
scFv: QVQLVQSGGGLVRPGGSLSLSCAVSGITLRTYGMHWVRQAPGKGLEWVAGISFDGRSEYYADSVQGRFTISRDSSKNTLYLQMNSLRAEDTAVYYCARGAHYGFDIWGQGTMVTVSSGGGGTGGGGSGGGGSDIQMTQSPSTLSASIGDRVTITCRASEGIYHWLAWYQQKPGKAPKLLIYKASSLASGAPSRFSGSGSGTDFTLTISSLQPDDFATYYCQQYSNYPLTFGGGTKLEIK
In the case of B1, the ED50，TPO样激动剂活性(BaF/mpl细胞增殖，WST-8) in test [2] worked out at 29 nM.
